According to patent US20240209076A1 (KODIAK SCIENCES, published 2024):

Biological target: recombinant human IL-6 (human, UniProt P05231 30-212)
Assay: SPR, IL-6 on CM5 chip, Fab lysate, 25 C

Chain of recombinant human IL-6 (P05231 30-212 limits assumed): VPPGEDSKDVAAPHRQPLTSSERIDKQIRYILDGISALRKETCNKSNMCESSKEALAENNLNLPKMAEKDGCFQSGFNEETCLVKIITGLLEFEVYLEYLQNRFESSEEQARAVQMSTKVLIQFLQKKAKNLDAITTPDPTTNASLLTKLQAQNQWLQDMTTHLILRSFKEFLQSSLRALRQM

| Binder | koff [s⁻¹] |
| --- | --- |
| anti-IL-6 Fab, light chain M32L (Fab, V domains shown, see m39) VH: EVQLVESGGGLVQPGGSLRLSCAASGFTFSPFAMSWVRQAPGKGLEWVAKISPGGSWTYYSDTVTGRFTFSLDTSKSTAYLQMNSLRAEDTAVYYCARQLWGYYALDIWGQGTLVTVSS VL: DIQLTQSPSSLSASVGDRVTITCSASISVSYLYWYQQKPGKAPKLLIYDMSNLASGVPSRFSGSGSGTDFTLTISSLQPEDFATYYCMQWSGYPYTFGQGTKVEIK | 0.00492 |
| anti-IL-6 Fab, light chain S51K (Fab, V domains shown, see m39) VH: EVQLVESGGGLVQPGGSLRLSCAASGFTFSPFAMSWVRQAPGKGLEWVAKISPGGSWTYYSDTVTGRFTFSLDTSKSTAYLQMNSLRAEDTAVYYCARQLWGYYALDIWGQGTLVTVSS VL: DIQLTQSPSSLSASVGDRVTITCSASISVSYMYWYQQKPGKAPKLLIYDMKNLASGVPSRFSGSGSGTDFTLTISSLQPEDFATYYCMQWSGYPYTFGQGTKVEIK | 0.00461 |
| anti-IL-6 Fab, light chain S24P (Fab, V domains shown, see m39) VH: EVQLVESGGGLVQPGGSLRLSCAASGFTFSPFAMSWVRQAPGKGLEWVAKISPGGSWTYYSDTVTGRFTFSLDTSKSTAYLQMNSLRAEDTAVYYCARQLWGYYALDIWGQGTLVTVSS VL: DIQLTQSPSSLSASVGDRVTITCPASISVSYMYWYQQKPGKAPKLLIYDMSNLASGVPSRFSGSGSGTDFTLTISSLQPEDFATYYCMQWSGYPYTFGQGTKVEIK | 0.00397 |
| anti-IL-6 Fab, light chain N52S (Fab, V domains shown, see m39) VH: EVQLVESGGGLVQPGGSLRLSCAASGFTFSPFAMSWVRQAPGKGLEWVAKISPGGSWTYYSDTVTGRFTFSLDTSKSTAYLQMNSLRAEDTAVYYCARQLWGYYALDIWGQGTLVTVSS VL: DIQLTQSPSSLSASVGDRVTITCSASISVSYMYWYQQKPGKAPKLLIYDMSSLASGVPSRFSGSGSGTDFTLTISSLQPEDFATYYCMQWSGYPYTFGQGTKVEIK | 0.00555 |
| anti-IL-6 Fab, light chain S26K (Fab, V domains shown, see m39) VH: EVQLVESGGGLVQPGGSLRLSCAASGFTFSPFAMSWVRQAPGKGLEWVAKISPGGSWTYYSDTVTGRFTFSLDTSKSTAYLQMNSLRAEDTAVYYCARQLWGYYALDIWGQGTLVTVSS VL: DIQLTQSPSSLSASVGDRVTITCSAKISVSYMYWYQQKPGKAPKLLIYDMSNLASGVPSRFSGSGSGTDFTLTISSLQPEDFATYYCMQWSGYPYTFGQGTKVEIK | 0.00441 |
| anti-IL-6 Fab, light chain M88V (Fab, V domains shown, see m39) VH: EVQLVESGGGLVQPGGSLRLSCAASGFTFSPFAMSWVRQAPGKGLEWVAKISPGGSWTYYSDTVTGRFTFSLDTSKSTAYLQMNSLRAEDTAVYYCARQLWGYYALDIWGQGTLVTVSS VL: DIQLTQSPSSLSASVGDRVTITCSASISVSYMYWYQQKPGKAPKLLIYDMSNLASGVPSRFSGSGSGTDFTLTISSLQPEDFATYYCVQWSGYPYTFGQGTKVEIK | 0.00495 |
| anti-IL-6 Fab, light chain Q89A (Fab, V domains shown, see m39) VH: EVQLVESGGGLVQPGGSLRLSCAASGFTFSPFAMSWVRQAPGKGLEWVAKISPGGSWTYYSDTVTGRFTFSLDTSKSTAYLQMNSLRAEDTAVYYCARQLWGYYALDIWGQGTLVTVSS VL: DIQLTQSPSSLSASVGDRVTITCSASISVSYMYWYQQKPGKAPKLLIYDMSNLASGVPSRFSGSGSGTDFTLTISSLQPEDFATYYCMAWSGYPYTFGQGTKVEIK | 0.00585 |
| anti-IL-6 Fab, light chain S24K (Fab, V domains shown, see m39) VH: EVQLVESGGGLVQPGGSLRLSCAASGFTFSPFAMSWVRQAPGKGLEWVAKISPGGSWTYYSDTVTGRFTFSLDTSKSTAYLQMNSLRAEDTAVYYCARQLWGYYALDIWGQGTLVTVSS VL: DIQLTQSPSSLSASVGDRVTITCKASISVSYMYWYQQKPGKAPKLLIYDMSNLASGVPSRFSGSGSGTDFTLTISSLQPEDFATYYCMQWSGYPYTFGQGTKVEIK | 0.00416 |
| anti-IL-6 Fab, light chain S51D (Fab, V domains shown, see m39) VH: EVQLVESGGGLVQPGGSLRLSCAASGFTFSPFAMSWVRQAPGKGLEWVAKISPGGSWTYYSDTVTGRFTFSLDTSKSTAYLQMNSLRAEDTAVYYCARQLWGYYALDIWGQGTLVTVSS VL: DIQLTQSPSSLSASVGDRVTITCSASISVSYMYWYQQKPGKAPKLLIYDMDNLASGVPSRFSGSGSGTDFTLTISSLQPEDFATYYCMQWSGYPYTFGQGTKVEIK | 0.00466 |
| anti-IL-6 Fab, light chain Q89S (Fab, V domains shown, see m39) VH: EVQLVESGGGLVQPGGSLRLSCAASGFTFSPFAMSWVRQAPGKGLEWVAKISPGGSWTYYSDTVTGRFTFSLDTSKSTAYLQMNSLRAEDTAVYYCARQLWGYYALDIWGQGTLVTVSS VL: DIQLTQSPSSLSASVGDRVTITCSASISVSYMYWYQQKPGKAPKLLIYDMSNLASGVPSRFSGSGSGTDFTLTISSLQPEDFATYYCMSWSGYPYTFGQGTKVEIK | 0.00601 |
| anti-IL-6 Fab, light chain S28W (Fab, V domains shown, see m39) VH: EVQLVESGGGLVQPGGSLRLSCAASGFTFSPFAMSWVRQAPGKGLEWVAKISPGGSWTYYSDTVTGRFTFSLDTSKSTAYLQMNSLRAEDTAVYYCARQLWGYYALDIWGQGTLVTVSS VL: DIQLTQSPSSLSASVGDRVTITCSASIWVSYMYWYQQKPGKAPKLLIYDMSNLASGVPSRFSGSGSGTDFTLTISSLQPEDFATYYCMQWSGYPYTFGQGTKVEIK | 0.00398 |
| anti-IL-6 Fab, light chain M50E (Fab, V domains shown, see m39) VH: EVQLVESGGGLVQPGGSLRLSCAASGFTFSPFAMSWVRQAPGKGLEWVAKISPGGSWTYYSDTVTGRFTFSLDTSKSTAYLQMNSLRAEDTAVYYCARQLWGYYALDIWGQGTLVTVSS VL: DIQLTQSPSSLSASVGDRVTITCSASISVSYMYWYQQKPGKAPKLLIYDESNLASGVPSRFSGSGSGTDFTLTISSLQPEDFATYYCMQWSGYPYTFGQGTKVEIK | 0.00476 |
| anti-IL-6 Fab, light chain S28E (Fab, V domains shown, see m39) VH: EVQLVESGGGLVQPGGSLRLSCAASGFTFSPFAMSWVRQAPGKGLEWVAKISPGGSWTYYSDTVTGRFTFSLDTSKSTAYLQMNSLRAEDTAVYYCARQLWGYYALDIWGQGTLVTVSS VL: DIQLTQSPSSLSASVGDRVTITCSASIEVSYMYWYQQKPGKAPKLLIYDMSNLASGVPSRFSGSGSGTDFTLTISSLQPEDFATYYCMQWSGYPYTFGQGTKVEIK | 0.00451 |
| anti-IL-6 Fab, light chain S24I (Fab, V domains shown, see m39) VH: EVQLVESGGGLVQPGGSLRLSCAASGFTFSPFAMSWVRQAPGKGLEWVAKISPGGSWTYYSDTVTGRFTFSLDTSKSTAYLQMNSLRAEDTAVYYCARQLWGYYALDIWGQGTLVTVSS VL: DIQLTQSPSSLSASVGDRVTITCIASISVSYMYWYQQKPGKAPKLLIYDMSNLASGVPSRFSGSGSGTDFTLTISSLQPEDFATYYCMQWSGYPYTFGQGTKVEIK | 0.00412 |
| anti-IL-6 Fab, light chain M88A (Fab, V domains shown, see m39) VH: EVQLVESGGGLVQPGGSLRLSCAASGFTFSPFAMSWVRQAPGKGLEWVAKISPGGSWTYYSDTVTGRFTFSLDTSKSTAYLQMNSLRAEDTAVYYCARQLWGYYALDIWGQGTLVTVSS VL: DIQLTQSPSSLSASVGDRVTITCSASISVSYMYWYQQKPGKAPKLLIYDMSNLASGVPSRFSGSGSGTDFTLTISSLQPEDFATYYCAQWSGYPYTFGQGTKVEIK | 0.00479 |
| anti-IL-6 Fab, light chain M32V (Fab, V domains shown, see m39) VH: EVQLVESGGGLVQPGGSLRLSCAASGFTFSPFAMSWVRQAPGKGLEWVAKISPGGSWTYYSDTVTGRFTFSLDTSKSTAYLQMNSLRAEDTAVYYCARQLWGYYALDIWGQGTLVTVSS VL: DIQLTQSPSSLSASVGDRVTITCSASISVSYVYWYQQKPGKAPKLLIYDMSNLASGVPSRFSGSGSGTDFTLTISSLQPEDFATYYCMQWSGYPYTFGQGTKVEIK | 0.00455 |
| anti-IL-6 Fab, light chain S30A (Fab, V domains shown, see m39) VH: EVQLVESGGGLVQPGGSLRLSCAASGFTFSPFAMSWVRQAPGKGLEWVAKISPGGSWTYYSDTVTGRFTFSLDTSKSTAYLQMNSLRAEDTAVYYCARQLWGYYALDIWGQGTLVTVSS VL: DIQLTQSPSSLSASVGDRVTITCSASISVAYMYWYQQKPGKAPKLLIYDMSNLASGVPSRFSGSGSGTDFTLTISSLQPEDFATYYCMQWSGYPYTFGQGTKVEIK | 0.00654 |
| anti-IL-6 Fab, light chain S24V (Fab, V domains shown, see m39) VH: EVQLVESGGGLVQPGGSLRLSCAASGFTFSPFAMSWVRQAPGKGLEWVAKISPGGSWTYYSDTVTGRFTFSLDTSKSTAYLQMNSLRAEDTAVYYCARQLWGYYALDIWGQGTLVTVSS VL: DIQLTQSPSSLSASVGDRVTITCVASISVSYMYWYQQKPGKAPKLLIYDMSNLASGVPSRFSGSGSGTDFTLTISSLQPEDFATYYCMQWSGYPYTFGQGTKVEIK | 0.00416 |
| anti-IL-6 Fab, light chain M50D (Fab, V domains shown, see m39) VH: EVQLVESGGGLVQPGGSLRLSCAASGFTFSPFAMSWVRQAPGKGLEWVAKISPGGSWTYYSDTVTGRFTFSLDTSKSTAYLQMNSLRAEDTAVYYCARQLWGYYALDIWGQGTLVTVSS VL: DIQLTQSPSSLSASVGDRVTITCSASISVSYMYWYQQKPGKAPKLLIYDDSNLASGVPSRFSGSGSGTDFTLTISSLQPEDFATYYCMQWSGYPYTFGQGTKVEIK | 0.00458 |
| anti-IL-6 Fab, light chain S26G (Fab, V domains shown, see m39) VH: EVQLVESGGGLVQPGGSLRLSCAASGFTFSPFAMSWVRQAPGKGLEWVAKISPGGSWTYYSDTVTGRFTFSLDTSKSTAYLQMNSLRAEDTAVYYCARQLWGYYALDIWGQGTLVTVSS VL: DIQLTQSPSSLSASVGDRVTITCSAGISVSYMYWYQQKPGKAPKLLIYDMSNLASGVPSRFSGSGSGTDFTLTISSLQPEDFATYYCMQWSGYPYTFGQGTKVEIK | 0.00394 |
| anti-IL-6 Fab, light chain S26H (Fab, V domains shown, see m39) VH: EVQLVESGGGLVQPGGSLRLSCAASGFTFSPFAMSWVRQAPGKGLEWVAKISPGGSWTYYSDTVTGRFTFSLDTSKSTAYLQMNSLRAEDTAVYYCARQLWGYYALDIWGQGTLVTVSS VL: DIQLTQSPSSLSASVGDRVTITCSAHISVSYMYWYQQKPGKAPKLLIYDMSNLASGVPSRFSGSGSGTDFTLTISSLQPEDFATYYCMQWSGYPYTFGQGTKVEIK | 0.00427 |
| anti-IL-6 Fab, light chain S30G (Fab, V domains shown, see m39) VH: EVQLVESGGGLVQPGGSLRLSCAASGFTFSPFAMSWVRQAPGKGLEWVAKISPGGSWTYYSDTVTGRFTFSLDTSKSTAYLQMNSLRAEDTAVYYCARQLWGYYALDIWGQGTLVTVSS VL: DIQLTQSPSSLSASVGDRVTITCSASISVGYMYWYQQKPGKAPKLLIYDMSNLASGVPSRFSGSGSGTDFTLTISSLQPEDFATYYCMQWSGYPYTFGQGTKVEIK | 0.00677 |
